Test results: patent KR20210143097A (dated 2021)

T1: CD22 on B-cell lymphoma U2932 cells (UniProt P20273 20-847, limits assumed)
T1 construct: whole, on cells; Endogenous CD22 on the U2932 cell line; also called CD22를 발현하는 비세포림프종 U2932; CD22를 발현하는 U2932 세포
T1 sequence (looked up): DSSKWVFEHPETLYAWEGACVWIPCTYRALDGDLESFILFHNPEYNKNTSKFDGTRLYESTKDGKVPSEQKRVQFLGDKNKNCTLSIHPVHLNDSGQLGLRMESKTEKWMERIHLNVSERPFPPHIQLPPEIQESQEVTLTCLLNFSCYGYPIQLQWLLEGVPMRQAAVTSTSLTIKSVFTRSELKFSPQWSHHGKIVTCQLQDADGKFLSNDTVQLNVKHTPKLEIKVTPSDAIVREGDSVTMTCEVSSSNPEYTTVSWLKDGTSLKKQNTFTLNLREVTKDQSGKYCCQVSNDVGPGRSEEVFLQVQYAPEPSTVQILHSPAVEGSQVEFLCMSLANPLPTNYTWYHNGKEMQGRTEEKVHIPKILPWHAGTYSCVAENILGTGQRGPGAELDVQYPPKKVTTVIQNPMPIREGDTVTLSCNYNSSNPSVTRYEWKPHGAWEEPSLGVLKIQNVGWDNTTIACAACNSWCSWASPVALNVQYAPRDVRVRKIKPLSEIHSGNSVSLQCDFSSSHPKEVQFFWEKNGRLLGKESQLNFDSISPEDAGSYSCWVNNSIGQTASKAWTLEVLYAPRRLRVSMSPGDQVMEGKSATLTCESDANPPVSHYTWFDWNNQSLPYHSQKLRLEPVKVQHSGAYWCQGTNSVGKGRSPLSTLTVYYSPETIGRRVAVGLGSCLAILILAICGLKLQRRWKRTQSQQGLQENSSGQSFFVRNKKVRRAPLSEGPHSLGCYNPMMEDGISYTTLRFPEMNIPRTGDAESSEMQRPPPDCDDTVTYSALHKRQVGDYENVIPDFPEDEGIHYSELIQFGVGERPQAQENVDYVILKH


How the values were obtained:
[1] = target: CD22-His tag (CD22 extracellular domain; ACRObiosystems Inc.) (UniProt P20273); assay: ELISA, CD22-His tag coated at 100 ng/well, primary antibody 0.4 ㎍/㎖, absorbance at 450 nm
[2] = target: T1, CD22 on B-cell lymphoma U2932 cells; assay: flow cytometry on U2932 cells, 1 ㎍ antibody per 1x10^6 cells, PE anti-mouse IgG secondary

| Binder | OD450 측정값 [1] | binding result [2] |
| --- | --- | --- |
| 7B5 항체 (antibody, V domains shown, Antibody from a mouse hybridoma, detected with an anti-mouse IgG secondary antibody) VH: EVQLEESGPGLVAPSQSLSITCTVSGFSLTRYDISWIRQPPGKGLEWLGVMWTGGGTNYNSAFMSRLSISRDNSKSQVFLKMNSLQTDDTAIYYCVRSYYGSAMDYWGQGTSVTVSS VL: DIVMTQSSSYLSVSLGGRVTITCKASDHINNWLAWYQQKPGNAPRLLISGATSLETGVPSRFSGSGSGKDYTLSITSLQTEDVATYYCQQHWSTPFTFGSGTKLEIK | 2.66 | binds |
| 3F11 항체 (antibody, V domains shown, Antibody from a mouse hybridoma, detected with an anti-mouse IgG secondary antibody) VH: EVKLVESGGGLVQPGGSMKLSCVASGFTFSNYWMNWVRQSPEKGLEWVAEIRLKSNNYATHYAESVKGRFTISRDDSKSSVYLQMNNLRAEDTGIYYCTSIYYYGRDYAMDYWGQGTSVTVSS VL: DIVMTQSPAIMSASLGERVTMTCTASSSVSSSYLHWYQQKPGSSPKLWIYSTSNLASGVPARFSGSGSGTSYSLTISSMEAEDAATYYCHQYHRSPYTFGGGTKLEIK | 1.86 | binds |
